According to PMC4694823, “Tumorigenesis by Meis1 overexpression is accompanied by a change of DNA target-sequence specificity which allows binding to the AP-1 element”:

Legend:
[1] = biological target: T1, Meis1;Pbx1 (mouse?;mouse?, UniProt Q60954;P41778 1-390;1-308, |); test: EMSA; binds at lower protein:DNA ratio than AP1; 15 uL reactions with 5% glycerol, 1 ug poly-dIdC, 1.3 uM ds oligo, 12 ug Meis1/Pbx1 or 7 ug Prep1/Pbx1; 30 min on ice; 5-15% native PAGE, GelRed stain; buffer; details: protein: recombinant;recombinant; tags: GST fusion from modified pGEX6p-2rbs; copies: 1;1; blunt
T1 sequence 1: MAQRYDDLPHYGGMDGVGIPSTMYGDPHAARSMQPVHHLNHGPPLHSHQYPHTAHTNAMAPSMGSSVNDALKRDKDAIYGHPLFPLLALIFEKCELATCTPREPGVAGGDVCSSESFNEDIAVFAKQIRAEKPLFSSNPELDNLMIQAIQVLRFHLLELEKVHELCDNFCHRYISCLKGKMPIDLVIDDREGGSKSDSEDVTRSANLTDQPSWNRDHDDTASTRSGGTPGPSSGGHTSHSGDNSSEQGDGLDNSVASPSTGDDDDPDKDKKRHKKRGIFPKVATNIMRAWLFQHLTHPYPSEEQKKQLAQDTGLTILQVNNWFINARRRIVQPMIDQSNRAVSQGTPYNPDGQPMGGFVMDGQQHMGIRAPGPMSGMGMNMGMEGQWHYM
T1 sequence 2: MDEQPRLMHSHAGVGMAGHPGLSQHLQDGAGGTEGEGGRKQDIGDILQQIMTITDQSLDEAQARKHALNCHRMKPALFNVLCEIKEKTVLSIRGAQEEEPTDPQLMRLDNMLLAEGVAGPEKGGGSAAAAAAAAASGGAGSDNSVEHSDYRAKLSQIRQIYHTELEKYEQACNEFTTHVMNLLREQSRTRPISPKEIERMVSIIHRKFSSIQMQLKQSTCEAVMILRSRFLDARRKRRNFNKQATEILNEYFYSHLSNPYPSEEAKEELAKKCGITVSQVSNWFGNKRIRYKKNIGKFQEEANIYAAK

[2] = biological target: c-Fos;c-Jun (;, UniProt P01100;P05412 1-380;1-331, |); test: EMSA; 15 uL reactions with 5% glycerol, 1 ug poly-dIdC, 1.3 uM ds oligo, 12 ug Meis1/Pbx1 or 7 ug Prep1/Pbx1; 30 min on ice; 5-15% native PAGE, GelRed stain; buffer; details: protein: commercial;commercial; tags: ;; copies: 1;1; blunt
[3] = biological target: T1, Meis1;Pbx1; test: EMSA; needs higher protein:DNA ratio than OCTA; 15 uL reactions with 5% glycerol, 1 ug poly-dIdC, 1.3 uM ds oligo, 12 ug Meis1/Pbx1 or 7 ug Prep1/Pbx1; 30 min on ice; 5-15% native PAGE, GelRed stain; buffer; details: protein: recombinant;recombinant; tags: GST fusion from modified pGEX6p-2rbs; copies: 1;1; blunt
[4] = biological target: T2, Prep1 (pKnox1);Pbx1 (mouse?;mouse?, UniProt O70477;P41778 1-344;1-308, |); test: EMSA; binds also at low protein:DNA ratio; AP1 oligo taken as the only printed single AP1 oligo; 15 uL reactions with 5% glycerol, 1 ug poly-dIdC, 1.3 uM ds oligo, 12 ug Meis1/Pbx1 or 7 ug Prep1/Pbx1; 30 min on ice; 5-15% native PAGE, GelRed stain; buffer; details: protein: recombinant;recombinant; tags: GST fusion from modified pGEX6p-2rbs; copies: 1;1; blunt
T2 sequence 1: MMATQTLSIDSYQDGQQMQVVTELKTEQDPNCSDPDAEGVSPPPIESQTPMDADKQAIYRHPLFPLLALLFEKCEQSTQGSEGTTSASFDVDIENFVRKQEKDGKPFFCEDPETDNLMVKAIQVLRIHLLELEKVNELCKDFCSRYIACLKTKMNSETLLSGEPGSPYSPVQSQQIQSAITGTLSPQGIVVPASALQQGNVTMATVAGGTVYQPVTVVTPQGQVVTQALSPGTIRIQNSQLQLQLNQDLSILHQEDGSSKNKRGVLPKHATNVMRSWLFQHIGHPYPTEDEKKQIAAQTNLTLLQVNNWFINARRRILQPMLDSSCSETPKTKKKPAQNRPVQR
T2 sequence 2: T1 sequence 2

[5] = biological target: T2, Prep1 (pKnox1);Pbx1; test: EMSA; 15 uL reactions with 5% glycerol, 1 ug poly-dIdC, 1.3 uM ds oligo, 12 ug Meis1/Pbx1 or 7 ug Prep1/Pbx1; 30 min on ice; 5-15% native PAGE, GelRed stain; buffer; details: protein: recombinant;recombinant; tags: GST fusion from modified pGEX6p-2rbs; copies: 1;1; blunt
[6] = biological target: T1, Meis1;Pbx1; test: as above; details: protein: recombinant;recombinant; tags: GST fusion from modified pGEX6p-2rbs; copies: 1;1; blunt

c-Fos;c-Jun, sequence (P01100 whole entry, chain 1 of 2, the tested form may be a part): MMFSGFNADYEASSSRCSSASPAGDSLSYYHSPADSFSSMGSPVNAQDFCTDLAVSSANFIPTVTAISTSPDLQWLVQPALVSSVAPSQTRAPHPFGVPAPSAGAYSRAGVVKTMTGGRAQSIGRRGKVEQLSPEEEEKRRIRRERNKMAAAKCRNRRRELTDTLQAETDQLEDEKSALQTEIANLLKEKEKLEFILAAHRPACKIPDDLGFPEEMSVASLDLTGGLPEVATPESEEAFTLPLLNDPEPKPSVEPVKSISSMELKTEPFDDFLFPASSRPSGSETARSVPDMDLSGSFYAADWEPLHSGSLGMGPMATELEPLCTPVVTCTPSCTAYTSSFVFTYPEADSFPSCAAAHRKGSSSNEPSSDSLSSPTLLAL
c-Fos;c-Jun, sequence (P05412 whole entry, chain 2 of 2, the tested form may be a part): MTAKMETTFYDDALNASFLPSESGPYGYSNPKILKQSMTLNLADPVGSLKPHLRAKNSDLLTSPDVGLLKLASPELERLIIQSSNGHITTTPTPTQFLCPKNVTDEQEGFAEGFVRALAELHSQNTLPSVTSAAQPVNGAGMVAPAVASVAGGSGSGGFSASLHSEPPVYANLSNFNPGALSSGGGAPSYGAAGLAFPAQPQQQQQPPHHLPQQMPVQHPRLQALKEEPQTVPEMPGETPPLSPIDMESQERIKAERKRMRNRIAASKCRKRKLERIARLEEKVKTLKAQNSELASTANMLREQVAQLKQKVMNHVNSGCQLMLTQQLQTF

B1: OCTA (dsDNA)
DNA 1: GAAAGTGATAAATAATACAAGGAAAGC
DNA 2: GCTTTCCTTGTATTATTTATCACTTTC
B1: binds [1].

B2: AP1 (dsDNA)
DNA 1: CATTACCATGAGTCATTGGGCTTGCTC
DNA 2: GAGCAAGCCCAATGACTCATGGTAATG
B2: binds [2]; binds [3]; binds [4].

B3: AP1+DECA (dsDNA)
DNA 1: TAAAATGCTGAGTCACTGACTGACAGCTTTAGGCT
DNA 2: AGCCTAAAGCTGTCAGTCAGTGACTCAGCATTTTA
B3: binds [5].

B4: OCTA+AP1 (dsDNA)
DNA 1: ATTATAGTGATGAATCATCATGACTCATGGTCCAG
DNA 2: CTGGACCATGAGTCATGATGATTCATCACTATAAT
B4: binds [6].

B5: DECA (dsDNA)
DNA 1: AGCTGACCTCTGAGTGACAGGGTGGAATGTGA
DNA 2: TCACATTCCACCCTGTCACTCAGAGGTCAGCT
B5: binds [5].
